Results taken from the supplement of paper PMC5998384.

How the values were obtained:
HeLa Kyoto [1] = assay: solubility in G1/S (NP-40 vs SDS abundance) (log2 ratio); higher = more soluble; conditions: cell cycle stage: G1/S
HeLa Kyoto [2] = assay: solubility change mitosis vs G1/S (difference of NP-40 vs SDS log2 ratios) (log2 ratio difference); higher = more soluble in mitosis
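For solubility change mitosis vs G1/S (difference of NP-40 vs SDS log2 ratios) in this document: synchronized HeLa Kyoto cells (double thymidine block for G1/S, nocodazole release for mitosis), protein amounts in NP-40 versus SDS lysates quantified by mass spectrometry, three biological replicates.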
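For solubility in G1/S (NP-40 vs SDS abundance) in this document: HeLa Kyoto cells arrested at G1/S by double thymidine block, proteins quantified by TMT10plex mass spectrometry in mild NP-40 versus SDS extracts, three biological replicates.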

Question: How did the “solubility in G1/S (log2)” value (HeLa Kyoto [1]) turn out when “MEDGTPKHIIQMTGFKMEEKEALVKLLLKLDCTFIKSEKYKNCTHLIAERLCKSEKFLAACAAGKWILTKDYIIHSAKSGRWLDETTYEWGYKIEKDSRYSPQMQSAPKRWREELKRTGAPGAFHRWKVVLLVRTDKRSDSLIRVLEAGKANVILPKSSPSGITHVIASNARIKAEKEKDNFKAPFYPIQYLGDFLLEKEIQNDEDSQTNSVWTEHSNEETNKDFRKDAGFLEMKGALRETMYRTQKEMQNHEDVNVGSILIQHHKKEKFSGSSKDLKFVKMRNTFGSHTYENQKEIKKKDEDIQRSYTLRRKRKKGKESNCKKGVEHEKIKSTLRRHIYNRDQKEMKNSIFAEYAKESKAMAIKTDVDVVEIKNTLRKHIYRAQAVRYNCIRIDKQPVYNVEVKNAEFPRGVLNLIESLIEGHFFKEAIEELSTLQAHYIPPVCVLHALLENVLQDNIDTFSGRYFHILSALLHLHPPWKSPAMSRYYLELFQCPTCMKGAWSLVEVLIRSCLFNESFCHQISENIGSKVLHLTLLKFFFNLIESEVQHLSQKLYDWSDSQNLKITGKAMLLEIFWSGSETSGLLTKPVNMLLEWTIYSHKEKFKSNDVFKHELAYLLAGILGAAIDYWIFLGLKMGRNVMRHMSDDLGSYVSLSCDDFSSQELEIFICSFSSSWLQMFVAEAVFKKLCLQSSGSVSSEPLSLQKMVYSYLPALGKTGVLGSGKIQVSKKIGQRPCFDSQRTLLMLNGTKQKQVEGLPELLDLNLAKCSSSLKKLKKKSEGELSCSKENCPSVVKKMNFHKTNLKGETALHRACINNQVEKLILLLSLPGIDINVKDNAGWTPLHEACNYGNTVCVQEILQRCPEVDLLTQVDGVTPLHDALSNGHVEIGKLLLQHGGPVLLQQRNAKGELPLDYVVSPQIKEELFAITKIEDTVENFHAQAEKHFHYQQLEFGSFLLSRMLLNFCSIFDLSSEFILASKGLTHLNELLMACKSHKETTSVHTDWLLDLYAGNIKTLQKLPHILKELPENLKVCPGVHTEALMITLEMMCRSVMEFS [SLF1]” was run?
Answer: Its value is -0.991.

Question: What about the “solubility change mitosis (log2)” value (HeLa Kyoto [2]) of the same sequence?
Answer: Its value is 0.644.

Question: Which “solubility in G1/S (log2)” value (HeLa Kyoto [1]) does the source give for “MEDSQDLNEQSVKKTCTESDVSQSQNSRSMEMQDLASPHTLVGGGDTPGSSKLEKSNLSSTSVTTNGTGGENMTVLNTADWLLSCNTPSSATMSLLAVKTEPLNSSETTATTGDGALDTFTGSVITSSGYSPRSAHQYSPQLYPSKPYPHILSTPAAQTMSAYAGQTQYSGMQQPAVYTAYSQTGQPYSLPTYDLGVMLPAIKTESGLSQTQSPLQSGCLSYSPGFSTPQPGQTPYSYQMPGSSFAPSSTIYANNSVSNSTNFSGSQQDYPSYTAFGQNQYAQYYSASTYGAYMTSNNTADGTPSSTSTYQLQESLPGLTNQPGEFDTMQSPSTPIKDLDERTCRSSGSKSRGRGRKNNPSPPPDSDLERVFVWDLDETIIVFHSLLTGSYAQKYGKDPPMAVTLGLRMEEMIFNLADTHLFFNDLEECDQVHIDDVSSDDNGQDLSTYSFATDGFHAAASSANLCLPTGVRGGVDWMRKLAFRYRRVKELYNTYKNNVGGLLGPAKRDAWLQLRAEIEGLTDSWLTNALKSLSIISTRSNCINVLVTTTQLIPALAKVLLYSLGGAFPIENIYSATKIGKESCFERIMQRFGRKVVYVVIGDGVEEEQAAKKHNMPFWRISSHSDLLALHQALELEYL [EYA4]” here?
Answer: Its value is -0.147.

Question: And the “solubility change mitosis (log2)” value (HeLa Kyoto [2])?
Answer: The value was -0.16.

Question: How did the “solubility in G1/S (log2)” value (HeLa Kyoto [1]) turn out when “MEEERGSALAAESALEKNVAELTVMDVYDIASLVGHEFERVIDQHGCEAIARLMPKVVRVLEILEVLVSRHHVAPELDELRLELDRLRLERMDRIEKERKHQKELELVEDVWRGEAQDLLSQIAQLQEENKQLMTNLSHKDVNFSEEEFQKHEGMSERERQVMKKLKEVVDKQRDEIRAKDRELGLKNEDVEALQQQQTRLMKINHDLRHRVTVVEAQGKALIEQKVELEADLQTKEQEMGSLRAELGKLRERLQGEHSQNGEEEPETEPVGEESISDAEKVAMDLKDPNRPRFTLQELRDVLHERNELKSKVFLLQEELAYYKSEEMEEENRIPQPPPIAHPRTSPQPESGIKRLFSFFSRDKKRLANTQRNVHIQESFGQWANTHRDDGYTEQGQEALQHL [RILPL1]” was run?
Answer: The value was 0.246.

Question: And the “solubility change mitosis (log2)” value (HeLa Kyoto [2])?
Answer: The value was -0.0361.

Question: Which results are given for “MEEIKPASASCVSKEKPSKVSDLISRFEGGSSLSNYSDLKKESAVNLNAPRTPGRHGLTTTPQQKLLSQHLPQRQGNDTDKTQGAQTCVANGVMAAQNQMECEEEKAATLSSDTSIQASEPLLDTHIVNGERDETATAPASPTTDSCDGNASDSSYRTPGIGPVLPLEERGAETETKVQERENGESPLELEQLDQHHEMKETNEQKLHKIANELLLTERAYVNRLDLLDQVFYCKLLEEANRGSFPAEMVNKIFSNISSINAFHSKFLLPELEKRMQEWETTPRIGDILQKLAPFLKMYGEYVKGFDNAMELVKNMTERIPQFKSVVEEIQKQKICGSLTLQHHMLEPVQRIPRYEMLLKDYLRKLPPDSLDWNDAKKSLEIISTAASHSNSAIRKMENLKKLLEIYEMLGEEEDIVNPSNELIKEGQILKLAARNTSAQERYLFLFNNMLLYCVPKFSLVGSKFTVRTRVGIDGMKIVETQNEEYPHTFQVSGKERTLELQASSAQDKEEWIKALQETIDAFHQRHETFRNAIAKDNDIHSEVSTAELGKRAPRWIRDNEVTMCMKCKEPFNALTRRRHHCRACGYVVCWKCSDYKAQLEYDGGKLSKVCKDCYQIISGFTDSEEKKRKGILEIESAEVSGNSVVCSFLQYMEKSKPWQKAWCVIPKQDPLVLYMYGAPQDVRAQATIPLLGYVVDEMPRSADLPHSFKLTQSKSVHSFAADSEELKQKWLKVILLAVTGETPGGPNEHPATLDDHPEPKKKSEC [FGD4]”?
Answer: solubility in G1/S (log2) (HeLa Kyoto [1]): -0.163; solubility change mitosis (log2) (HeLa Kyoto [2]): -0.00729

Question: Which results are given for “MEESMEEEEGGSYEAMMDDQNHNNWEAAVDGFRQPLPPPPPPSSIPAPAREPPGGQLLAVPAVSVDRKGPKEGLPMGPQPPPEANGVIMMLKSCDAAAAVAKAAPAPTASSTININTSTSKFLMNVITIEDYKSTYWPKLDGAIDQLLTQSPGDYIPISYEQIYSCVYKCVCQQHSEQMYSDLIKKITNHLERVSKELQASPPDLYIERFNIALGQYMGALQSIVPLFIYMNKFYIETKLNRDLKDDLIKLFTEHVAEKHIYSLMPLLLEAQSTPFQVTPSTMANIVKGLYTLRPEWVQMAPTLFSKFIPNILPPAVESELSEYAAQDQKFQRELIQNGFTRGDQSRKRAGDELAYNSSSACASSRGYR [CACUL1]”?
Answer: solubility in G1/S (log2) (HeLa Kyoto [1]): 0.278; solubility change mitosis (log2) (HeLa Kyoto [2]): 0.103

Question: How did the “solubility in G1/S (log2)” value (HeLa Kyoto [1]) turn out when “MEFLLGNPFSTPVGQCLEKATDGSLQSEDWTLNMEICDIINETEEGPKDAIRALKKRLNGNRNYREVMLALTVLETCVKNCGHRFHILVANRDFIDSVLVKIISPKNNPPTIVQDKVLALIQAWADAFRSSPDLTGVVHIYEELKRKGVEFPMADLDALSPIHTPQRSVPEVDPAATMPRSQSQQRTSAGSYSSPPPAPYSAPQAPALSVTGPITANSEQIARLRSELDVVRGNTKVMSEMLTEMVPGQEDSSDLELLQELNRTCRAMQQRIVELISRVSNEEVTEELLHVNDDLNNVFLRYERFERYRSGRSVQNASNGVLNEVTEDNLIDLGPGSPAVVSPMVGNTAPPSSLSSQLAGLDLGTESVSGTLSSLQQCNPRDGFDMFAQTRGNSLAEQRKTVTYEDPQAVGGLASALDNRKQSSEGIPVAQPSVMDDIEVWLRTDLKGDDLEEGVTSEEFDKFLEERAKAAEMVPDLPSPPMEAPAPASNPSGRKKPERSEDALFAL [TOM1L2]” was run?
Answer: Its value is 0.292.

Question: And the “solubility change mitosis (log2)” value (HeLa Kyoto [2])?
Answer: The value was -0.0085.

Question: Which “solubility in G1/S (log2)” value (HeLa Kyoto [1]) does the source give for “MEGESSRFEIHTPVSDKKKKKCSIHKERPQKHSHEIFRDSSLVNEQSQITRRKKRKKDFQHLISSPLKKSRICDETANATSTLKKRKKRRYSALEVDEEAGVTVVLVDKENINNTPKHFRKDVDVVCVDMSIEQKLPRKPKTDKFQVLAKSHAHKSEALHSKVREKKNKKHQRKAASWESQRARDTLPQSESHQEESWLSVGPGGEITELPASAHKNKSKKKKKKSSNREYETLAMPEGSQAGREAGTDMQESQPTVGLDDETPQLLGPTHKKKSKKKKKKKSNHQEFEALAMPEGSQVGSEVGADMQESRPAVGLHGETAGIPAPAYKNKSKKKKKKSNHQEFEAVAMPESLESAYPEGSQVGSEVGTVEGSTALKGFKESNSTKKKSKKRKLTSVKRARVSGDDFSVPSKNSESTLFDSVEGDGAMMEEGVKSRPRQKKTQACLASKHVQEAPRLEPANEEHNVETAEDSEIRYLSADSGDADDSDADLGSAVKQLQEFIPNIKDRATSTIKRMYRDDLERFKEFKAQGVAIKFGKFSVKENKQLEKNVEDFLALTGIESADKLLYTDRYPEEKSVITNLKRRYSFRLHIGRNIARPWKLIYYRAKKMFDVNNYKGRYSEGDTEKLKMYHSLLGNDWKTIGEMVARSSLSVALKFSQISSQRNRGAWSKSETRKLIKAVEEVILKKMSPQELKEVDSKLQENPESCLSIVREKLYKGISWVEVEAKVQTRNWMQCKSKWTEILTKRMTNGRRIYYGMNALRAKVSLIERLYEINVEDTNEIDWEDLASAIGDVPPSYVQTKFSRLKAVYVPFWQKKTFPEIIDYLYETTLPLLKEKLEKMMEKKGTKIQTPAAPKQVFPFRDIFYYEDDSEGEDIEKESEGQAPCMAHACNSSTLGGQGRWII [TTF1]” here?
Answer: Its value is -1.02.

Question: And the “solubility change mitosis (log2)” value (HeLa Kyoto [2])?
Answer: The value was 0.169.

Question: With “MEGSFSDGGALPEGLAEEAEPQGAAWSGDSGTVSQSHSSASGPWEDEGAEDGAPGRDLPLLRRAAAGYAACLLPGAGARPEVEALDASLEDLLTRVDEFVGMLDMLRGDSSHVVSEGVPRIHAKAAEMRRIYSRIDRLEAFVRMVGGRVARMEEQVTKAEAELGTFPRAFKKLLHTMNVPSLFSKSAPSRPQQAGYEAPVLFRTEDYFPCCSERPQL [BLOC1S4]” as the sequence, how does the “solubility in G1/S (log2)” value (HeLa Kyoto [1]) read?
Answer: The value was 0.477.

Question: What about the “solubility change mitosis (log2)” value (HeLa Kyoto [2]) of the same sequence?
Answer: The value was 0.323.

Question: For “MEKMSRVTTALGGSVLTGRTMHCHLDAPANAISVCRDAAQVVVAGRSIFKIYAIEEEQFVEKLNLRVGRKPSLNLSCADVVWHQMDENLLATAATNGVVVTWNLGRPSRNKQDQLFTEHKRTVNKVCFHPTEAHVLLSGSQDGFMKCFDLRRKDSVSTFSGQSESVRDVQFSIRDYFTFASTFENGNVQLWDIRRPDRCERMFTAHNGPVFCCDWHPEDRGWLATGGRDKMVKVWDMTTHRAKEMHCVQTIASVARVKWRPECRHHLATCSMMVDHNIYVWDVRRPFVPAAMFEEHRDVTTGIAWRHPHDPSFLLSGSKDSSLCQHLFRDASQPVERANPEGLCYGLFGDLAFAAKESLVAAESGRKPYTGDRRHPIFFKRKLDPAEPFAGLASSALSVFETEPGGGGMRWFVDTAERYALAGRPLAELCDHNAKVARELGRNQVAQTWTMLRIIYCSPGLVPTANLNHSVGKGGSCGLPLMNSFNLKDMAPGLGSETRLDRSKGDARSDTVLLDSSATLITNEDNEETEGSDVPADYLLGDVEGEEDELYLLDPEHAHPEDPECVLPQEAFPLRHEIVDTPPGPEHLQDKADSPHVSGSEADVASLAPVDSSFSLLSVSHALYDSRLPPDFFGVLVRDMLHFYAEQGDVQMAVSVLIVLGERVRKDIDEQTQEHWYTSYIDLLQRFRLWNVSNEVVKLSTSRAVSCLNQASTTLHVNCSHCKRPMSSRGWVCDRCHRCASMCAVCHHVVKGLFVWCQGCSHGGHLQHIMKWLEGSSHCPAGCGHLCEYS [WDR24]”, which “solubility in G1/S (log2)” value (HeLa Kyoto [1]) is on record?
Answer: The value was -0.232.

Question: And the “solubility change mitosis (log2)” value (HeLa Kyoto [2])?
Answer: The value was -0.106.

Question: With “MELATRYQIPKEVADIFNAPSDDEEFVGFRDDVPMETLSSEESCDSFDSLESGKQQDVRFHSKYFTEELRRIFIEDTDSETEDFAGFTQSDLNGKTNPEVMVVESDLSDDGKASLVSEEEEDEEEDKATPRRSRSRRSSIGLRVAFQFPTKKLANKPDKNSSSEQLFSSARLQNEKKTILERKKDCRQVIQREDSTSESEDDSRDESQESSDALLKRTMNIKENKAMLAQLLAELNSMPDFFPVRTPTSASRKKTVRRAFSEGQITRRMNPTRSARPPEKFALENFTVSAAKFAEEFYSFRRRKTIGGKCREYRRRHRISSFRPVEDITEEDLENVAITVRDKIYDKVLGNTCHQCRQKTIDTKTVCRNQGCCGVRGQFCGPCLRNRYGEDVRSALLDPDWVCPPCRGICNCSYCRKRDGRCATGILIHLAKFYGYDNVKEYLESLQKELVEDN [CDCA7L]” as the sequence, how does the “solubility in G1/S (log2)” value (HeLa Kyoto [1]) read?
Answer: Its value is -0.846.

Question: And the “solubility change mitosis (log2)” value (HeLa Kyoto [2])?
Answer: Its value is 0.727.
